Targets include human 5HT7 receptor (human, UniProt P34969 1-479); mouse 5HT5B receptor (mouse, UniProt P31387 1-370); human 5HT1D receptor (human, UniProt P28221 1-377); human 5HT1B receptor (human, UniProt P28222 1-390); human 5HT4 receptor (human, UniProt Q13639 1-388); human 5HT6 receptor (human, UniProt P50406 1-440); human MCH receptor (human, UniProt Q99705 1-353); rat Y4 receptor (rat, UniProt Q63447 1-375); human Y4 receptor (human, UniProt P50391 1-375).

Experiment in all cases: cell-based or functional assay
Experiment [1] has as its target human β2 adrenergic receptor (human, UniProt P07550 1-413).
Another experiment addresses T1, rat GALR2 receptor (rat, UniProt O08726 1-372).
T1 sequence (looked up): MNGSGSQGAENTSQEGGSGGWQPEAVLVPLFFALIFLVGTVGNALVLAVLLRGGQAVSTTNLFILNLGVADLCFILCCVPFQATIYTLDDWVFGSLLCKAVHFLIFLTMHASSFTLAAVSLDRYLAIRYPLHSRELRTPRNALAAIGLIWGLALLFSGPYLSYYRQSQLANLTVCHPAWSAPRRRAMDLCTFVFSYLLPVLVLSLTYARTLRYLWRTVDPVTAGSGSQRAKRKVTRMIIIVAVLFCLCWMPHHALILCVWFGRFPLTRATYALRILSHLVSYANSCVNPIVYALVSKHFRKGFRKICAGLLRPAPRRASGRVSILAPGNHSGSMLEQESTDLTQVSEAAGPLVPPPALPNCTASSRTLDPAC

The target of experiment [2] is human dopamine D2 receptor (human, UniProt P14416 1-443).
The target of another experiment is T2, human Y1 receptor (human, UniProt P25929 1-384).
T2 sequence (looked up): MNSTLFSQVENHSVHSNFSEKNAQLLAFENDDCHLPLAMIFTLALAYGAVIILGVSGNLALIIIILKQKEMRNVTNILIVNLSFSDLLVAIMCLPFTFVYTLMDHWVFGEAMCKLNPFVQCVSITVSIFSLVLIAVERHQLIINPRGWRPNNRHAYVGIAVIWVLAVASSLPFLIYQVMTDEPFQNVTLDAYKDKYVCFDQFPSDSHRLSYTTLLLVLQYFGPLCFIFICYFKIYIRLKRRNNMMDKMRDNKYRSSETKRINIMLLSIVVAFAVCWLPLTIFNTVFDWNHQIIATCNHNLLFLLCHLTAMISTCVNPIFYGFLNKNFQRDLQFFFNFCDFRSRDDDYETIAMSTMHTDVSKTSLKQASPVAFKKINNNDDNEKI

Experiment [3] deals with T3, human α1A adrenergic receptor (human, UniProt P35348 1-466).
T3 sequence (looked up): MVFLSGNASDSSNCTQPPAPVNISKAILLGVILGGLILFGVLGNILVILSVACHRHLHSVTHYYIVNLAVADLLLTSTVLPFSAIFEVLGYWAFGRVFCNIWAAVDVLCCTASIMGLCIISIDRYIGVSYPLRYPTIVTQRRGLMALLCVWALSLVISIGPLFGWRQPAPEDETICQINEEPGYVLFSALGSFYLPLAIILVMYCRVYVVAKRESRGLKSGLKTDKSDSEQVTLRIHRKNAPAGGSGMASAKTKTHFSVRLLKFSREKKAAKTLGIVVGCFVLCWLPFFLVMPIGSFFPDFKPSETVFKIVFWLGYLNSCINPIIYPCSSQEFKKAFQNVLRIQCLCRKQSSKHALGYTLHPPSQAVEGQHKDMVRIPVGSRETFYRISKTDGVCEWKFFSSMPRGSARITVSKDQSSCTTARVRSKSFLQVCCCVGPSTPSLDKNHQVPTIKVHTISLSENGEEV

Experiment [4] concerns the target T4, human dopamine D1 receptor (human, UniProt P21728 1-446).
For experiment [5], the target named is T4, human dopamine D1 receptor. This is another data set of the same source.

human 5HT4 receptor, sequence (Q13639 whole entry): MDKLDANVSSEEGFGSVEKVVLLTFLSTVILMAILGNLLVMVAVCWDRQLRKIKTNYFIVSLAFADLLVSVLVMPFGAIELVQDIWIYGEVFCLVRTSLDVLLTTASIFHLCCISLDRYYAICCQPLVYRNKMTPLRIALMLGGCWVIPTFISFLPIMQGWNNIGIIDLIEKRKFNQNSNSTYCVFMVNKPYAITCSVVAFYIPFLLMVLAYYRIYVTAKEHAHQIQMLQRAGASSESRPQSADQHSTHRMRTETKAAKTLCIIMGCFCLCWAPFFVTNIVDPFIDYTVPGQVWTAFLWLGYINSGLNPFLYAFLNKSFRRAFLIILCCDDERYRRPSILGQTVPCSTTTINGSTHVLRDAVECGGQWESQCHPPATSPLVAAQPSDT
human 5HT1B receptor, sequence (P28222 whole entry): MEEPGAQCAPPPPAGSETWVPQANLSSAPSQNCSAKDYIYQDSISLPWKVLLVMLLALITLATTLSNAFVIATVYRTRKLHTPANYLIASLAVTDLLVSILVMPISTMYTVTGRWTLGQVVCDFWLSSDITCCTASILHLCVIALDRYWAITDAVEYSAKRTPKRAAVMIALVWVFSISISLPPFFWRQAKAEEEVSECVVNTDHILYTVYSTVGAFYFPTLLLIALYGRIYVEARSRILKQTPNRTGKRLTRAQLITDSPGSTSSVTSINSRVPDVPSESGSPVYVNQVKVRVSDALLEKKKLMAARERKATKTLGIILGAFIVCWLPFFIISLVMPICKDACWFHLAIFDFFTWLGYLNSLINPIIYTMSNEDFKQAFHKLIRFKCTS
human 5HT1D receptor, sequence (P28221 whole entry): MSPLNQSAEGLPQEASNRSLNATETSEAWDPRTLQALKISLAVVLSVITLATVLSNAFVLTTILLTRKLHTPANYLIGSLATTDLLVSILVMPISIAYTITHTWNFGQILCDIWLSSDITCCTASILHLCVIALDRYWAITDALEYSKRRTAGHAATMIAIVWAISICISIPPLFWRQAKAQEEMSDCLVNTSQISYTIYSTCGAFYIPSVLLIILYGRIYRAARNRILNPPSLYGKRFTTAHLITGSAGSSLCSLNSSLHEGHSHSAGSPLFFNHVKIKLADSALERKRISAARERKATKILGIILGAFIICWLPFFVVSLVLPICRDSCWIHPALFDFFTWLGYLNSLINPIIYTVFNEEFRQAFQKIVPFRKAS
mouse 5HT5B receptor, sequence (P31387 whole entry): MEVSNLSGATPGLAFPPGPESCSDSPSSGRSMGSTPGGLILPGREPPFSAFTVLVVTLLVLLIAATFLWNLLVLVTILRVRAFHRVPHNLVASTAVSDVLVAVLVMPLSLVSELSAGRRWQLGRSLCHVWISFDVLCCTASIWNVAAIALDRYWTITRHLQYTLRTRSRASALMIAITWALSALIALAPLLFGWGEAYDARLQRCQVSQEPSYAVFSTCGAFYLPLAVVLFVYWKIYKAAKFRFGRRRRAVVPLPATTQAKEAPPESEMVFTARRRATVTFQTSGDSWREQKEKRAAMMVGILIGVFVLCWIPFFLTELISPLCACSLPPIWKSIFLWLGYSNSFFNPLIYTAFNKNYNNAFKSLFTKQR
rat Y4 receptor, sequence (Q63447 whole entry): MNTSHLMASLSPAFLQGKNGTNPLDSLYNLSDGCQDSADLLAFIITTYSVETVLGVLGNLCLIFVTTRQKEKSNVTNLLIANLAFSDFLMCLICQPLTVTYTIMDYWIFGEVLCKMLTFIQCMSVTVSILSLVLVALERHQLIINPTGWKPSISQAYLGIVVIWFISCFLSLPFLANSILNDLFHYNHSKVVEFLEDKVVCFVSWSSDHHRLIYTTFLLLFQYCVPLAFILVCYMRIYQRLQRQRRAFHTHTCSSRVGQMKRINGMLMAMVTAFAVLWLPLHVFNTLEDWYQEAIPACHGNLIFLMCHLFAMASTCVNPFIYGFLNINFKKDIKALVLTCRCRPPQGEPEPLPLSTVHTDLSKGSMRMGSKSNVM
human dopamine D2 receptor, sequence (P14416 whole entry): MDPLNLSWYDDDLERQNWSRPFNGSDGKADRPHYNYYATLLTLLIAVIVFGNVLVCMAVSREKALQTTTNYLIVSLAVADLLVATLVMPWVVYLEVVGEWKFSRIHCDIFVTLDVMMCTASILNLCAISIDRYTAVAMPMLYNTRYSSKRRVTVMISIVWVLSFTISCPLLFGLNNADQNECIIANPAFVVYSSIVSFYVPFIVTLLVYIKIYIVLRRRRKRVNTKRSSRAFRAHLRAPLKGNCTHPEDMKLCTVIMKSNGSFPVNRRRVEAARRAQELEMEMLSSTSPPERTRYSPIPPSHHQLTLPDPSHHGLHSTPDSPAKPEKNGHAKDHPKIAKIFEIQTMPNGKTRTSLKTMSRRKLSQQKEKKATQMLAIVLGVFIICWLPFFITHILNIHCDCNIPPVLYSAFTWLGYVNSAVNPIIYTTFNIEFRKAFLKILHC
human 5HT6 receptor, sequence (P50406 whole entry): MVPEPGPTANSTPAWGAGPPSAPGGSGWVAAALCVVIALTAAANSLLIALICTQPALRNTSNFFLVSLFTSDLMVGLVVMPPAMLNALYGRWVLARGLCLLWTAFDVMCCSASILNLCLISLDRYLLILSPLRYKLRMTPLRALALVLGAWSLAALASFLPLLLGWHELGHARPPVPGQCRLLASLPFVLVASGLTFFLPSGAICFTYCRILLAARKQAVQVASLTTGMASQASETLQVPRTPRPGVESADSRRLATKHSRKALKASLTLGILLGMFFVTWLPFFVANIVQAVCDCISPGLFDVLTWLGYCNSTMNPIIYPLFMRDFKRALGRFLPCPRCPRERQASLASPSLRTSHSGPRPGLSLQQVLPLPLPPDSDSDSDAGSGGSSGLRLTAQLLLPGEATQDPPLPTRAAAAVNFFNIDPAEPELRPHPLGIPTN
T4 sequence (P21728 whole entry): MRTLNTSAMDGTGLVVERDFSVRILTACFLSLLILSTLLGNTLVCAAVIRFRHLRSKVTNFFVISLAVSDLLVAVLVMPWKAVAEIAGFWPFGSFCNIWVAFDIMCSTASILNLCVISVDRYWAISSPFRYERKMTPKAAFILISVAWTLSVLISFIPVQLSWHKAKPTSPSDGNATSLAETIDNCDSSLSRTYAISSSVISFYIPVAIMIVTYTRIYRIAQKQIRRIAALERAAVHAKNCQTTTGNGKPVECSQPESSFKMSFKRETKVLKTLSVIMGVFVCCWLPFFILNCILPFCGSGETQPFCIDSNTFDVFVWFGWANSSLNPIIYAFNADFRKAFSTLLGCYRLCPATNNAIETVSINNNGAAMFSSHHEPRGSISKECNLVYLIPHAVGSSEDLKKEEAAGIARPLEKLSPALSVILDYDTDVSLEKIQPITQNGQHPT
human Y4 receptor, sequence (P50391 whole entry): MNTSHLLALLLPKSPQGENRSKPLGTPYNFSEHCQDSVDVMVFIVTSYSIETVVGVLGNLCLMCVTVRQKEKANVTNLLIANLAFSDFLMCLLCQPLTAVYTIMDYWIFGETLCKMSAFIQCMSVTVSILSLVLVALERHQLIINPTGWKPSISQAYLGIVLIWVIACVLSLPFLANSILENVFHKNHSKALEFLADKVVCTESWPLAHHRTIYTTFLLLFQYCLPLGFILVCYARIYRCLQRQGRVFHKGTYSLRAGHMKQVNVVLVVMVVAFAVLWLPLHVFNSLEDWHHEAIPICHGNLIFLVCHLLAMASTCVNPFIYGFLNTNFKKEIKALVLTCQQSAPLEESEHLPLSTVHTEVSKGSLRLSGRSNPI
human 5HT7 receptor, sequence (P34969 whole entry): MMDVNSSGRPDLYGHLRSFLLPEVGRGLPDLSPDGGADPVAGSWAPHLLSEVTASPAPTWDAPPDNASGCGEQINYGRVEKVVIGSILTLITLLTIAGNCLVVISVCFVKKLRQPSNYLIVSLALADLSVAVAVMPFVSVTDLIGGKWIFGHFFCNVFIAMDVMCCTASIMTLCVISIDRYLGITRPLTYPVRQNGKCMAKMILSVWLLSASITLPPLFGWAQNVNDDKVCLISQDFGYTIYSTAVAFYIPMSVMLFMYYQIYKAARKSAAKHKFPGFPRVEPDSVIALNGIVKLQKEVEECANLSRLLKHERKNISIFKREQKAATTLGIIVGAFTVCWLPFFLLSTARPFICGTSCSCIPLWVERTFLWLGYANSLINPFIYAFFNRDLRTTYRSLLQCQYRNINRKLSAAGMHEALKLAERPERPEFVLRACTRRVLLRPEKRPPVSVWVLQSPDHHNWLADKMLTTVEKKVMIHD
human MCH receptor, sequence (Q99705 whole entry): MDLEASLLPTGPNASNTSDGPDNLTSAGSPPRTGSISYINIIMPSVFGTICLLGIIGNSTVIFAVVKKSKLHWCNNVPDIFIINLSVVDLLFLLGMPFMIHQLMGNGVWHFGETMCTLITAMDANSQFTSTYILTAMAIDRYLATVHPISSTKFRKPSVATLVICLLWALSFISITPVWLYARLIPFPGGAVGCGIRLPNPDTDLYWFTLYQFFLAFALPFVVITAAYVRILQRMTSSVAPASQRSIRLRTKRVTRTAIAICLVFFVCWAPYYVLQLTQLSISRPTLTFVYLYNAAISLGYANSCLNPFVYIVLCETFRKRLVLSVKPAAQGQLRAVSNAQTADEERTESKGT

B1: Human Gαq/z5 (Ala→Ser substitution at position 171) (other)
chain: MTLESIMACCLSEEAKEARRINDEIERQLRRDKRDARRELKLLLLGTGESGKSTFIKQMRIIHGSGYSDEDKRGFTKLVYQNIFTAMQAMIRAMDTLKIPYKYEHNKAHAQLVREVDVEKVSAFENPYVDAIKSLWNDPGIQECYDRRREYQLSDSTKYYLNDLDRVADPSYLPTQQDVLRVRVPTTGIIEYPFDLQSVIFRMVDVGGQRSERRKWIHCFENVTSIMFLVALSEYDQVLVESDNENRMEESKALFRTIITYPWFQNSSVILFLNKKDLLEEKIMYSHLVDYFPEYDGPQRDAQAAREFILKMFVDLNPDSDKIIYSHFTCATDTENIRFVFAAVKDTILQLNLKYIGLC
As to B1, the “max Ca2+ signal, COS-7, FLIPR; agonist 5HT” value (“max Ca2+ signal … agonist 5HT” below) with human 5HT7 receptor turned out to be 90 fluorescence units; in the experiment with mouse 5HT5B receptor it was 251 fluorescence units; in the experiment with human 5HT1D receptor it was 316 fluorescence units; with human 5HT1B receptor it was 405 fluorescence units; with human 5HT4 receptor, 2160 fluorescence units; with human 5HT6 receptor it was 210 fluorescence units. In addition, the entries for the “max Ca2+ signal, COS-7, FLIPR; agonist NE” value (shortened to “max Ca2+ signal … agonist NE”) in experiment [1] and in experiment [3] were 128 fluorescence units and 14200 fluorescence units, respectively. Further, in the experiment with human MCH receptor, the “max Ca2+ signal, COS-7, FLIPR; agonist MCH” value (“max Ca2+ signal … agonist MCH” below) came out at 783 fluorescence units. Moreover, the results for the “max Ca2+ signal, COS-7, FLIPR; agonist PP” value (shortened to “max Ca2+ signal … agonist PP”) with rat Y4 receptor and with human Y4 receptor were 4390 fluorescence units and 9970 fluorescence units, respectively. Further, in the experiment with rat GALR2 receptor, the “max Ca2+ signal, COS-7, FLIPR; agonist GAL” value (“max Ca2+ signal … agonist GAL” below) was 4860 fluorescence units. Also, the “max Ca2+ signal, COS-7, FLIPR; agonist DA” value (shortened to “max Ca2+ signal … agonist DA”) in experiment [2] stood at 15600 fluorescence units; in [4], 0 fluorescence units. Also, the “max Ca2+ signal, COS-7, FLIPR; agonist NPY” value (“max Ca2+ signal … agonist NPY” below) with human Y1 receptor was 1880 fluorescence units. Moreover, the “max Ca2+ signal, COS-7, FLIPR; 100 µM dopamine” value in [5] stood at 0 fluorescence units.

B2: C. elegans Gαq/z5 (other)
chain: MACCLSEEAREQKRINQEIEKQLQRDKRNARRELKLLLLGTGESGKSTFIKQMRIIHGQGYSEEDKRAHIRLVYQNVFMAIQSMIRAMDTLDIKFGNESEELQEKAAVVREVDFESVTSFEEPYVSYIKELWEDSGIQECYDRRREYQLTDSAKYYLSDLRRLAVPDYLPTEQDILRVRVPTTGIIEYPFDLEQIIFRMVDVGGQRSERRKWIHCFENVTSIMFLVALSEYDQVLVECDNENRMEESKALFRTIITYPWFTNSSVILFLNKKDLLEEKILYSHLADYFPEYDGPPRDPIAAREFILKMFVDLNPDADKIIYSHFTCATDTENIRFVFAAVKDTILQHNLKYIGLC
For the molecule B2, the “max Ca2+ signal … agonist 5HT” value with human 5HT7 receptor was determined as 166 fluorescence units; in the experiment with mouse 5HT5B receptor, 265 fluorescence units; in the experiment with human 5HT1D receptor it was 414 fluorescence units; in the experiment with human 5HT1B receptor it was 929 fluorescence units; in the experiment with human 5HT4 receptor, 1010 fluorescence units; with human 5HT6 receptor, 1290 fluorescence units. Besides, the “max Ca2+ signal … agonist NE” value in experiment [1] is 1840 fluorescence units; in experiment [3] it was 9820 fluorescence units. Moreover, the “max Ca2+ signal … agonist MCH” value with human MCH receptor was determined as 2700 fluorescence units. The “max Ca2+ signal … agonist PP” value stood at 3660 fluorescence units with rat Y4 receptor and 9420 fluorescence units with human Y4 receptor. Further, in the experiment with rat GALR2 receptor, the “max Ca2+ signal … agonist GAL” value amounted to 4200 fluorescence units. For the same molecule, the results for the “max Ca2+ signal … agonist DA” value in experiment [2] and in experiment [4] were 7620 fluorescence units and 12100 fluorescence units, respectively. The “max Ca2+ signal … agonist NPY” value with human Y1 receptor came to 7720 fluorescence units. Further, the “max Ca2+ signal, COS-7, FLIPR; 100 µM dopamine” value in experiment [5] was 4830 fluorescence units.

B3: C. elegans Gαq/z9 (other)
chain: MACCLSEEAREQKRINQEIEKQLQRDKRNARRELKLLLLGTGESGKSTFIKQMRIIHGQGYSEEDKRAHIRLVYQNVFMAIQSMIRAMDTLDIKFGNESEELQEKAAVVREVDFESVTSFEEPYVSYIKELWEDSGIQECYDRRREYQLTDSAKYYLSDLRRLAVPDYLPTEQDILRVRVPTTGIIEYPFDLEQIIFRMVDVGGQRSERRKWIHCFENVTSIMFLVALSEYDQVLVECDNENRMEESKALFRTIITYPWFTNSSVILFLNKKDLLEEKILYSHLADYFPEYDGPPRDPIAAREFILKMFVDLNPDADKIIYSHFTCATDTENIRFVFAAVKDTILQNNLKYIGLC
B3: the “max Ca2+ signal … agonist 5HT” value with human 5HT7 receptor worked out at 129 fluorescence units; with mouse 5HT5B receptor it was 443 fluorescence units; with human 5HT1D receptor, 504 fluorescence units; in the experiment with human 5HT1B receptor it was 1220 fluorescence units; with human 5HT4 receptor, 1700 fluorescence units; with human 5HT6 receptor it was 2290 fluorescence units. The “max Ca2+ signal … agonist NE” value was 1700 fluorescence units in experiment [1] and 6600 fluorescence units in experiment [3]. In the experiment with human MCH receptor, the “max Ca2+ signal … agonist MCH” value came to 3330 fluorescence units. Moreover, the “max Ca2+ signal … agonist PP” value came out at 2580 fluorescence units with rat Y4 receptor and 7400 fluorescence units in the experiment with human Y4 receptor. Besides, the “max Ca2+ signal … agonist GAL” value in the experiment with rat GALR2 receptor amounted to 4470 fluorescence units. In addition, the “max Ca2+ signal … agonist DA” value turned out to be 4300 fluorescence units in experiment [2] and 13100 fluorescence units in experiment [4]. Moreover, the “max Ca2+ signal … agonist NPY” value with human Y1 receptor is 6730 fluorescence units.
